Measured values published in the DeepSol protein solubility set.

Experiment: soluble on expression in E. coli; label from the status in PepcDB or PDB records

Question: For “MDFNLNDEQELFVAGIRELMASENWEAYFAECDRDSVYPERFVKALADMGIDSLLIPEEHGGLDAGFVTLAAVWMELGRLGAPTYVLYQLPGGFNTFLREGTQEQIDKIMAFRGTGKQMWNSAITEPGAGSDVGSLKTTYTRRNGKIYLNGSKCFITSSAYTPYIVVMARDGASPDKPVYTEWFVDMSKPGIKVTKLEKLGLRMDSCCEITFDDVELDEKDMFGREGNGFNRVKEEFDHERFLVALTNYGTAMCAFEDAARYANQRVQFGEAIGRFQLIQEKFAHMAIKLNSMKNMLYEAAWKADNGTITSGDAAMCKYFCANAAFEVVDSAMQVLGGVGIAGNHRISRFWRDLRVDRVSGGSDEMQILTLGRAVLKQYR”, which “soluble on expression in E. coli” value is on record?
Answer: soluble

Question: With “MDGAQPKTNFFERLIARLAREPDSAEDVLNLLRQAHEQEVFDADTLLRLEKVLDFSDLEVRDAMITRSRMNVLKENDSIERITAYVIDTAHSRFPVIGEDKDEVLGILHAKDLLKYMFNPEQFHLKSILRPAVFVPEGKSLTALLKEFREQRNHMAIVIDEYGGTSGLVTFEDIIEQIVGEIEDEFDEDDSADNIHAVSSERWRIHAATEIEDINTFFGTEYSSEEADTIGGLVIQELGHLPVRGEKVLIGGLQFTVARADNRRLHTLMATRVK” as the sequence, how does the “soluble on expression in E. coli” value read?
Answer: not soluble

Question: With “MDGSFVQHSVRVLQELNKQREKGQYCDATLDVGGLVFKAHWSVLACCSHFFQRIYGDGTGGSVVLPAGFAEIFGLLLDFFYTGHLALTSGNRDQVLLAAKELRVPEAVELCQSFQPQTSVGQAQSGLGQPASQDVKSHLKEPTDLDEEEVFKTLSLASVDQEPRDTEQPQLGTPAQSSTAFLCGKLTQALKPSPSEDKESEDCKEPPRPFEAGGAPLQGESNEWEVVVQVEDDRDGDYVSEPETVLTRRKSKVIRKPCAAEPALGAGSLTAEPTDSRKGAAVPVECPTCHKKFLSKYYLKVHNRKHTGEKPFECPKCGKCYFRKENLLEHEARNCMNRSEQVFTCSVCQETFRRRMELRLHMVSHTGEMPYKCSSCSQQFMQKKDLQSHMIKLHGAPKPHAVSASQGWGSGGSGTAQSCPHLDVLPLPVSPTCSAPLVPSASCLGRSYSCTRLLSIVEKSSLCVRNAGTGPRAATGCRCTSRPSTGMKGLMSVSSAAMPSPRRPTSTCTCARTPARSLSSATSVGRPSAPKFGQAQPHPHGREAFQL” as the sequence, how does the “soluble on expression in E. coli” value read?
Answer: soluble

Question: For “MDHAPERFDATPPAGEPDRPALGVLELTSIARGITVADAALKRAPSLLLMSRPVSSGKHLLMMRGQVAEVEESMIAAREIAGAGSGALLDELELPYAHEQLWRFLDAPVVADAWEEDTESVIIVETATVCAAIDSADAALKTAPVVLRDMRLAIGIAGKAFFTLTGELADVEAAAEVVRERCGARLLELACIARPVDELRGRLFF”, which “soluble on expression in E. coli” value is on record?
Answer: not soluble

Question: Which “soluble on expression in E. coli” value does the source give for “MDHFIKLLPKLTPHLRKGDCGKMGVIGGSLEYTGAPYFAASSASRLGADLIHIFCDPDAAQVIKGYSPDLIVHPGMTANSIIPKLSRMDAIVIGPGLGRNPNIWPLMQELFEFVRNRDVPFVIDGDGLWFVSEHIEKFPRQMSATVLTPNIVEFSRLCKSALGEEDVLNVRNNSQLQHLAAELSRKMNVTIYLKGEVDLVVTPNGEVSKCSTESSLRRCGGQGDVTAGSLGLFLYWAKKNLGDDWTSAHHEAGIASSWLVRTAGRRAFEKHGRSMNTPLLLDEIPKLVRDVETREMKDTVHTDSSKH” here?
Answer: not soluble

Question: For “MDHHSKAKELLQQRDELDGKIKELMLVLETNNSTMDSPLLDAEGYPLNTIDVYAVRHARHDLICLRNDRAALTEKIVVEMENENKEVSGQTATSEEKPVHRTSNEPFVKISSVVELSPADIGGFRKDDLIIQYGNLHHGNFNDMQEVAQITKQSEDKIIRVTVIRENRPVRLEICPKKWSGPGLLGCNIVPISGANV”, which “soluble on expression in E. coli” value is on record?
Answer: not soluble

Question: With “MDIEIENHPLEPFLPANARLLMLGSFPPQKKRWSMDFYYPNLNNDMWRIVGLLFFNNKDYFLNETRKAFCRERIISFLNDKGIALFDTASAIRRLQDNASDKFLEVVQPTDISRLLGQLPECKAIVTTGQKATDTLRAQFEVEEPKVGDFSEFVFDGRPVRLYRMPSSSRAYPLALDKKAAAYRTMYQDLQMLNIELEHHHHHH” as the sequence, how does the “soluble on expression in E. coli” value read?
Answer: soluble

Question: Which “soluble on expression in E. coli” value does the source give for “MDIGRAVRFLRKRQGWTQQQLADFSHTSKSNISNLENGNQGYSPAILEYLAKAFNCSVSQIFLLAENMDNEGNLLKDWQHMPIDVLFIQLPQEVQCQLKHLIFTLIDTKK” here?
Answer: not soluble

Question: For “MDIKACYQNAKALLEGHFLLSSGFHSNYYLQSAKVLEDPKLAEQLALELAKQIQEAHLNIECVCSPAIGGILAGYELARALGVRFIFTERVDNTMALRRGFEVKKNEKILVCEDIITTGKSAMECAKVLEEKGAQIVAFGALANRGICKRAHSHLKAQEGACLPSHLPLFALEDFVFDMHKPSSCPLCATSVAIKPGSRGN”, which “soluble on expression in E. coli” value is on record?
Answer: not soluble

Question: Which “soluble on expression in E. coli” value does the source give for “MDIKNWSVYNKLYVGGGISDDVQTNTSETYDKEKDCWTLDNGHLVPHNYIMYKCEPVKHRYPLEKTQYTNDFLKYLESFIGS” here?
Answer: not soluble

Question: For “MDINLEYSLHDTQFFWQALSIRYHHAQRLKQLQRELAGFEQIKKFTLLPEAFSMEAGLITPTLKQRCKMIYHKYAHEINAMYNNLEHHHHHH”, which “soluble on expression in E. coli” value is on record?
Answer: not soluble

Question: For “MDIRQMNRTHLDHWRGLRKQLWPGHPDDAHLADGEEILQADHLASFIAMADGVAIGFADASIRHDYVNGCDSSPVVFLEGIFVLPSFRQRGVAKQLIAAVQRWGTNKGCREMASDTSPENTISQKVHQALGFEETERVIFYRKRC”, which “soluble on expression in E. coli” value is on record?
Answer: not soluble

Question: Which “soluble on expression in E. coli” value does the source give for “MDIRYFGTTPRYSEAVGANGLIFLSGMVPENGETAAEQTADVLAQIDRWLAECGSDKAHVLDAVIYLRDMGDYAEMNGVWDAWVAAGRTPARACVEARLARPEWRVEIKITAVKRDAATA” here?
Answer: not soluble

Question: For “MDIVQLGPAELKAWMDEGRMFCLLDVRTDEETAVCSLPNALHIPMNLIPLRQNELPDDVPLVVYCHHGIRSLHTAMYLADAGFENLYNLQGGIDAWAAEIDGNMMRY”, which “soluble on expression in E. coli” value is on record?
Answer: not soluble

Question: For “MDKMFKRTLLGAAVAMASTGAFAASETGAIGVLSDFNVQAYGVAAISAFYQEDSNGYDYENESRIGFRASKDMFDNVNVFMQIESGYVGEDGKGSTLGARDTFLGLQGDWGKVRFGRMLTPLYEIVDWPYSNPGLGRVFDWGGDVAGHYDRKGDIARYDSPAFGGLTFNISAGRGDVGTKSSNHFGAAAHYNAADIVTFHVGYENNSNFKYDYKTKDTAGKDVDNTFLTDATAYIVGFELPLPAGFGLAGAYKYTEGASKTVKGQEGEQGQYSLIGQYWNGPWGFKVGYAANLESEVNGVEQKDDDEVLSAQLMYVKNGFVPYIRVGQHDAYDSADKKGFVRVGLEYGF”, which “soluble on expression in E. coli” value is on record?
Answer: not soluble

Question: With “MDKNETRATIIRIGTDLISRQGFNATGIDAVLKEAGVPKGSFYYYFRSKEEFGLAVIDHFAERYDQRLDTFLNDEEVTPLNRIRNYLESALARLEQNQCSKGCLIGNLGQELADQHERFRGRLDEIFRSWKDRFAACLREAQRGGELAPELDAGVAAGFILSGLEGAILRTKVMKSPQPLRDFIEILFASVLRRQA” as the sequence, how does the “soluble on expression in E. coli” value read?
Answer: not soluble

Question: For “MDKTVFQQDLAPYVKYSLNKKKRWETGNDKNYLSEVQKRYRGMDMFVIDRVRLNSSPYFCFISRENFFHNYFLQFPIRQLHQLNADNSYSYVYANQTYGQSYKSLQPENRSPSKSKSAKKPELYQNAKVAYHIITPPKNYEKLQAPKFCPGSSDRNLTHRTLTHWRRVKRMRDALLSLRYEKFEVLDEEVDMVDDYLIFDQYDPPRKLLV”, which “soluble on expression in E. coli” value is on record?
Answer: not soluble

Question: For “MDLFDLIFPPPPQSPSKLHPTQNHILPPEPLNRDFGDTRKNHKKAQPRRTTKAPSTSSPTIHDRQTPPRPTTPKSPTEKLLPIYHKFADGTEVVNPAAYAQRGFGWVKQNNTARVSWAKWAQSTKKCDDDIYGLKWIEERYPNWRDSNFRIRERRRSRSRSPQLSDNGSEDISIYLGRANSSSPNPTATGSETSYGSPTDAIYIPRNY”, which “soluble on expression in E. coli” value is on record?
Answer: not soluble

Question: For “MDLFKIEANYIDIFNKEIYPASIAIANGHIASIEKINATLDEYVLPGFIDAHIHIESSFLVPSNFAHLVVAHGTVATISDPHEIANVNGIDGINFMINNSKKTEFKFFFGAPSCVPALSQEFETSGYVLNDKDIDELMKLDDIYYLAEVMDFKGVINKDIEIINKINSALKRNKVVDGHAPGLSPNLTLKYASSGISTDHECLTIEDARYKLSLGMKILIREGSAAKNFESLHPLISECSKKYCDSLMFCFDDAHPNDILNGHINLIVARAIKHGHDFFDVLKIACINPVLHYKIPVGLLRIGDPADFIITKDIKTFKINKTYINGKLVFNDGISLIPLINEIPINNFNCSKKSISDFKFSTKNKMIPVIKCISNQIITHKTMIDSNLLAPDFQSNIAEDILKIAIINRYKDNSKISIGFIKNFGIRNGAIGSTVAHDSHNIILVGSNDEYLCKAANTIIQNKGGLCALNNEKTIIMELPISGLMSTLSAERVASQYIKLNDFCKNVLGSRLDDPLMTLSFMSLTVVPHLKINDKGLFDVDSFCFVDYLEHHHHHH”, which “soluble on expression in E. coli” value is on record?
Answer: not soluble

Question: For “MDLFPDEVYVFTPKGHIMELPKGATPVDFAYTVHSGVGNSCVAAKVNRRLVPLSIPLSNGQTVEIITAPGAHPNPAWLEHHHHHH”, which “soluble on expression in E. coli” value is on record?
Answer: not soluble

Question: For “MDLFQAMRVYVKVVEAGSLTAAAQACSISTTMVGNHLRALEQRLGVSLLQRTTRRQRLTEFGTAYYERCLEVLGLVAESEQLAEQAQGDPSGTLRITAPLTFGSEVLAPALAGFSLRFPEVKLDLVLTNQRLDMIDNGFDIAIRLGNIPQSSPLIARLMQDYTLTICAAPSYLARHGTPAHPEDLGAHNCLAFSYPAGDEWRTAGTQWRMTGPEGEVLVDVDGSMVANTSAGLYQAACAGMGVVMLPDALVQRDLQEGRLVALLPGYHLPRRPMNLLYVQDRYRLPKVRSFVEYAMGLWGR”, which “soluble on expression in E. coli” value is on record?
Answer: not soluble

Question: Which “soluble on expression in E. coli” value does the source give for “MDLGSFGRIPPQNIEAEQSVLGAILLDKEVLSSVTEIISSQDFYREDHREIFEAIMDLYEKGEPIDLITVAEQLKVRGSLEAVGGLEYLTNLASLVPTTANAKHYAKIVEEKSILRRLIKASSEIINMGYEAAEEVSYVLDKAEKSIFDVLQKRNTQGFALIKDVLIDTFNRLEELYNNKGYITGIPTGFVDLDYKTAGLQNSDLILIAARPAMGKTSFVLNIAQYAAIHAKVPVAIFSLEMSKEQLVNRMLCCEAMVDSQKMRTGKLEDSDWQKVARALGPLSEAPIYIDDTPGLSVAEIRAKCRRLKLEKNLGLVVIDYLQLMQGRGKSESRQQEISEISRSLKILAKEINVPVLTLSQLSRAPELRSDHRPILSDLRESGAIEQDADIVMFLYRDDYYNPDTEKKNIAEVIIAKHRNGSTGTVELAWLGQYTKFANLEKYRQ” here?
Answer: not soluble

Question: For “MDLLERLGLGGRRVLILHHDDLGLTHAQNGAYQALGLPTGSVMVPGAWASGVKGEDLGVHLVLTSEWPAPRMRPLTEGESLRDEAGYFPESLEALWRKARAEEVERELKAQIQAAAKLFSPTHLDAHQGAVLRPDLAEVYLRLAEAYRLVPLVPESLEGLGVPPPFLPELERLLYETPFPQVRFLDPYGLPPEERLGFYLDLAHLPPGLYYLVHHSALPTPEGRALPDWPTREADYFALSHPEVRRVLAEFHPLTWRAVREALF”, which “soluble on expression in E. coli” value is on record?
Answer: soluble

Question: Which “soluble on expression in E. coli” value does the source give for “MDLRRFITLKTVVEEGSFLRASQKLCCTQSTVTFHIQQLEQEFSVQLFEKIGRRMCLTREGKKLLPHIYELTRVMDTLREAAKKESDPDGELRVVSGETLLSYRMPQVLQRFRQRAPKVRLSLQSLNCYVIRDALLNDEADVGVFYRVGNDDALNRRELGEQSLVLVASPQIADVDFTEPGRHNACSFIINEPQCVFRQIFESTLRQRRITVENTIELISIESIKRCVAANIGVSYLPRFAVAKELECGELIELPFGEQSQTITAMCAHHAGKAVSPAMHTFIQCVEESFVAG” here?
Answer: soluble
